Test results published in paper PMC4403447.

Columns and labels:
[1] = molecular target: Sti1 G193C–G309C N435A, labelled with ATTO 532 and ATTO 647 (S. cerevisiae) (UniProt P15705)
[2] = molecular target: Sti1 G193C–G309C, labelled with ATTO 532 and ATTO 647 (S. cerevisiae) (UniProt P15705)
[3] = molecular target: Sti1 G193C–G309C N39A, labelled with ATTO 532 and ATTO 647 (S. cerevisiae) (UniProt P15705)
Sequence of Sti1 G193C–G309C N39A, labelled with ATTO 532 and ATTO 647 (S. cerevisiae) (P15705 whole entry N39A/G193C/G309C): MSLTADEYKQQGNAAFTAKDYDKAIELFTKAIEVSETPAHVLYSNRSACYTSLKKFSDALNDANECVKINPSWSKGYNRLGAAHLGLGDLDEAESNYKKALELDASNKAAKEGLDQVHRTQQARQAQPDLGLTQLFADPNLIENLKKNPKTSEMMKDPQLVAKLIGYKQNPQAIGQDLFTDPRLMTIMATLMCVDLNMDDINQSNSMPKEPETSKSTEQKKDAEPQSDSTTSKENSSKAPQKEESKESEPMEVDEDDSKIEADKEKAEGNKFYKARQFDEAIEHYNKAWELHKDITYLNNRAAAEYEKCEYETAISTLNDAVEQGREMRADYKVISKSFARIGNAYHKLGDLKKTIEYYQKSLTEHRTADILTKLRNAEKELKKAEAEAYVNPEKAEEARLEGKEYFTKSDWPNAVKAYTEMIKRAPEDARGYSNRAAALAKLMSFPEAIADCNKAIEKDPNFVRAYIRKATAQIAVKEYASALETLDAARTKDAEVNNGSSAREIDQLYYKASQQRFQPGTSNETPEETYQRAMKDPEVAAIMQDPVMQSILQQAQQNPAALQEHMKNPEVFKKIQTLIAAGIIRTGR

Sequence of yHsp70 (Ssa1), P10591 1-642 (natural protein; ATTO 532 and ATTO 647 on the two cysteines (labelled stochastically)) (P10591 whole entry): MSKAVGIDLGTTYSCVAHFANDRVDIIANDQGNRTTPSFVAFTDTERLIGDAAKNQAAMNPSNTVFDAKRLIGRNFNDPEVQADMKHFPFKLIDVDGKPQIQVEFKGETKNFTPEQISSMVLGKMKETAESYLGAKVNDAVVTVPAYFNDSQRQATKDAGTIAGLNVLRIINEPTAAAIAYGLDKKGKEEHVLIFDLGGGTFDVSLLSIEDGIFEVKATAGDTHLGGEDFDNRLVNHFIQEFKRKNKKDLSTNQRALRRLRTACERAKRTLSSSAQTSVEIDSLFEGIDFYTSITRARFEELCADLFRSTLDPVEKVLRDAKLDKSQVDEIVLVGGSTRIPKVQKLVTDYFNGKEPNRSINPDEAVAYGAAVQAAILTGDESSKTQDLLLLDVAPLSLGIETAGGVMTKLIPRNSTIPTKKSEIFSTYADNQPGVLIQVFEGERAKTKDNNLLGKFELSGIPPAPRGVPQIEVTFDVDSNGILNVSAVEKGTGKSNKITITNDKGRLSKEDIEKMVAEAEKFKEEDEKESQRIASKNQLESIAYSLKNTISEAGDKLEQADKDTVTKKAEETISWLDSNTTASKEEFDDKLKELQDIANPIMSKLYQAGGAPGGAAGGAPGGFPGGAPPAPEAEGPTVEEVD
Sequence of Sti1 G193C–G309C N435A, labelled with ATTO 532 and ATTO 647 (S. cerevisiae) (P15705 whole entry G193C/G309C/N435A): as the sequence (P15705 whole entry N39A/G193C/G309C) above, with A39N, N435A counted along it
Sequence of Sti1 G193C–G309C, labelled with ATTO 532 and ATTO 647 (S. cerevisiae) (P15705 whole entry G193C/G309C): as the sequence (P15705 whole entry N39A/G193C/G309C) above, with A39N counted along it

dynamic traces (%) in surface-based spFRET (TIRF) of Sti1 encapsulated in vesicles with 25 μM Hsp70; 17 without Hsp [1] [%]	dynamic traces (%) in surface-based spFRET (TIRF) of Sti1 encapsulated in vesicles with 25 μM Hsp70; 17 without Hsp [2] [%]	dynamic traces (%) in surface-based spFRET (TIRF) of Sti1 encapsulated in vesicles with 25 μM Hsp70; 13 without Hsp [3] [%]	dynamic traces (%) in surface-based spFRET (TIRF) of Sti1 encapsulated in vesicles with 10 μM Hsp90; 17 without Hsp [1] [%]	dynamic traces (%) in surface-based spFRET (TIRF) of Sti1 encapsulated in vesicles with 10 μM Hsp90; 17 without Hsp [2] [%]	dynamic traces (%) in surface-based spFRET (TIRF) of Sti1 encapsulated in vesicles with 10 μM Hsp90; 13 without Hsp [3] [%]	Substance
15	28	27				yHsp70 (Ssa1), P10591 1-642 (natural protein; ATTO 532 and ATTO 647 on the two cysteines (labelled stochastically))
			26	31	27	yHsp90 (Hsp82), P02829 1-709 (natural protein; ATTO 532 and ATTO 647 on the two cysteines (labelled stochastically))
